Test results as given in publication PMC9537309, “The solution structure of Dead End bound to AU-rich RNA reveals an unusual mode of tandem RRM-RNA recognition required for mRNA regulation”.

Key:
[1] = molecular target: T1, DND1 RRM2 (human, UniProt Q8IYX4 136-227); assay: NMR titration; ITC: 100 mM potassium phosphate pH 6.6, 1 mM 2-mercaptoethanol, 25 C; NMR: 100 mM potassium phosphate pH 6.6, 1 mM DTT, 298 K (or 20 mM MES pH 6.6, 100 mM NaCl); Supplementary Fig. 3: 25 mM NaCl, 2 mM DTT, pH 6.3, 303 K; conditions: protein: recombinant; tags: N-terminal 6xHis, TEV-cleaved
T1 sequence: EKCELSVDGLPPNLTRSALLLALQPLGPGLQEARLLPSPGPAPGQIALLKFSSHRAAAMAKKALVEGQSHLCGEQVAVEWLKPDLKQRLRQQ

[2] = molecular target: T2, DND1 extended RRM1 (human, UniProt Q8IYX4 12-139); assay: as above; conditions: protein: recombinant; tags: N-terminal 6xHis, TEV-cleaved
T2 sequence: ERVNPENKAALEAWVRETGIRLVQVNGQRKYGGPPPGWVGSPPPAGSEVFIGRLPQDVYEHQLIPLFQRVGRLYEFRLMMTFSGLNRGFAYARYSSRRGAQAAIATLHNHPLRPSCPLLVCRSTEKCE

[3] = molecular target: T3, DND1 RRM12 (tandem RRMs) WT (human, UniProt Q8IYX4 12-235); assay: NMR titration; highest affinity of the three oligos; ITC: 100 mM potassium phosphate pH 6.6, 1 mM 2-mercaptoethanol, 25 C; NMR: 100 mM potassium phosphate pH 6.6, 1 mM DTT, 298 K (or 20 mM MES pH 6.6, 100 mM NaCl); Supplementary Fig. 3: 25 mM NaCl, 2 mM DTT, pH 6.3, 303 K; conditions: protein: recombinant; tags: N-terminal 6xHis, TEV-cleaved
T3 sequence: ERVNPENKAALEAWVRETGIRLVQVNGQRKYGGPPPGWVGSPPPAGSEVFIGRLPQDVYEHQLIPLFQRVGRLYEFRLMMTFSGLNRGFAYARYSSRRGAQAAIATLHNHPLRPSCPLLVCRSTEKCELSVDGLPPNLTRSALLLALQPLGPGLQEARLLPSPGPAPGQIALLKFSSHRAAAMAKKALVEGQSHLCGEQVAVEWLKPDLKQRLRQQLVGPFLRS

[4] = molecular target: T3, DND1 RRM12 (tandem RRMs) WT; assay: ITC; N = 1.04; text and Supplementary Table 2 print 0.68; ITC: 100 mM potassium phosphate pH 6.6, 1 mM 2-mercaptoethanol, 25 C; NMR: 100 mM potassium phosphate pH 6.6, 1 mM DTT, 298 K (or 20 mM MES pH 6.6, 100 mM NaCl); Supplementary Fig. 3: 25 mM NaCl, 2 mM DTT, pH 6.3, 303 K; conditions: protein: recombinant; tags: N-terminal 6xHis, TEV-cleaved; label: selective 13C-ribose in some structure samples; unlabeled in titrations
[5] = molecular target: T4, DND1 RRM12 K197A (human, UniProt Q8IYX4 12-235, K197A); assay: ITC; N = 0.98; ITC: 100 mM potassium phosphate pH 6.6, 1 mM 2-mercaptoethanol, 25 C; NMR: 100 mM potassium phosphate pH 6.6, 1 mM DTT, 298 K (or 20 mM MES pH 6.6, 100 mM NaCl); Supplementary Fig. 3: 25 mM NaCl, 2 mM DTT, pH 6.3, 303 K; conditions: protein: recombinant; tags: N-terminal 6xHis, TEV-cleaved; label: selective 13C-ribose in some structure samples; unlabeled in titrations
T4 sequence: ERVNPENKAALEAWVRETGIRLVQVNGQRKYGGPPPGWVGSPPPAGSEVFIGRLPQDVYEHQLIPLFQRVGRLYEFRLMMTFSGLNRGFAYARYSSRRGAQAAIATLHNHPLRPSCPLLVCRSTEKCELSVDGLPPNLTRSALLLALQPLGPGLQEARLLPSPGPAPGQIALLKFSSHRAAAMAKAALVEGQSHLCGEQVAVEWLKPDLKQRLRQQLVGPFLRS

[6] = molecular target: T5, DND1 RRM12 T135A (human, UniProt Q8IYX4 12-235, T135A); assay: NMR titration; binding not reduced; ITC: 100 mM potassium phosphate pH 6.6, 1 mM 2-mercaptoethanol, 25 C; NMR: 100 mM potassium phosphate pH 6.6, 1 mM DTT, 298 K (or 20 mM MES pH 6.6, 100 mM NaCl); Supplementary Fig. 3: 25 mM NaCl, 2 mM DTT, pH 6.3, 303 K; conditions: protein: recombinant; tags: N-terminal 6xHis, TEV-cleaved; label: selective 13C-ribose in some structure samples; unlabeled in titrations
T5 sequence: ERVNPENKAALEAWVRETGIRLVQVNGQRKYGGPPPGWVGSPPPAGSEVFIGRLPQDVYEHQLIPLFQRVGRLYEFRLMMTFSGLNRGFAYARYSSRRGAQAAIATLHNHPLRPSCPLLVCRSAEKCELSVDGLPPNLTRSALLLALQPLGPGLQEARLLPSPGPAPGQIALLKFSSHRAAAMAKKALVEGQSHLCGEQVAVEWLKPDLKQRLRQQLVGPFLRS

[7] = molecular target: T6, DND1 RRM12 R98A (human, UniProt Q8IYX4 12-235, R98A); assay: NMR titration; ITC: 100 mM potassium phosphate pH 6.6, 1 mM 2-mercaptoethanol, 25 C; NMR: 100 mM potassium phosphate pH 6.6, 1 mM DTT, 298 K (or 20 mM MES pH 6.6, 100 mM NaCl); Supplementary Fig. 3: 25 mM NaCl, 2 mM DTT, pH 6.3, 303 K; conditions: protein: recombinant; tags: N-terminal 6xHis, TEV-cleaved; label: selective 13C-ribose in some structure samples; unlabeled in titrations
T6 sequence: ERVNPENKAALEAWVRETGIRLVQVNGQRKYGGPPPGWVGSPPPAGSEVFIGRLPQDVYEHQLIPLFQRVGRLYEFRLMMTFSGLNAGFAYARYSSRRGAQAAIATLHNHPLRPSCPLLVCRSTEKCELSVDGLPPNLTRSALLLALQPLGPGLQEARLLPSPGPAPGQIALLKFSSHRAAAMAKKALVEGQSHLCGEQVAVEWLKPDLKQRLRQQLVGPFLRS

[8] = molecular target: T7, DND1 RRM12 M90A (human, UniProt Q8IYX4 12-235, M90A); assay: as above; conditions: protein: recombinant; tags: N-terminal 6xHis, TEV-cleaved; label: selective 13C-ribose in some structure samples; unlabeled in titrations
T7 sequence: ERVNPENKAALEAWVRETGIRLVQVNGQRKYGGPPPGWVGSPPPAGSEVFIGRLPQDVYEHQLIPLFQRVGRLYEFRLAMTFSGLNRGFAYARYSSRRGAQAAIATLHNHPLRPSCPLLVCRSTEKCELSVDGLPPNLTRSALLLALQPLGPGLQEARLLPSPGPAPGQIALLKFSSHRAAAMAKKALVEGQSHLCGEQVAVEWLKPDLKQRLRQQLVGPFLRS

Binder: UUUUUCC (ssRNA)
- binding result [1]: no binding
- binding result [2]: no binding

Binder: UUUUUAC (ssRNA)
- binding result [1]: no binding
- binding result [2]: no binding

Binder: UUAUUU (ssRNA)
- binding result [3]: binds
- binding result [1]: no binding

Binder: CUUAUUUG (ssRNA)
- Kd [4]: 690 ± 30 nM
- Kd [5]: 2600 ± 100 nM
- binding result [6]: binds
- binding result [7]: no binding
- binding result [8]: no binding
